Experimental data published in patent US6555340.

Assays:
[1] = molecular target: cellular RAGE on human cells (HUVEC, Molt-4 cells, PBMC, Jurkat cells) (human) (UniProt Q15109); assay: cell-based or functional assay
[2] = molecular target: RAGE on macrophages / macrophage-like cultured BV2 cells (MP RAGE) (UniProt Q62151); assay: binding to macrophages in culture wells
[3] = molecular target: RAGE on cultured bovine aortic endothelial cells (BAEC RAGE) (bovine) (UniProt Q28173); assay: binding to endothelial cells in culture wells
[4] = molecular target: purified soluble human RAGE (sRAGE), prepared from a baculovirus expression system (human) (UniProt Q15109); assay: binding to immobilised RAGE in wells
Sequence of purified soluble human RAGE (sRAGE), prepared from a baculovirus expression system (human) (Q15109 23-342): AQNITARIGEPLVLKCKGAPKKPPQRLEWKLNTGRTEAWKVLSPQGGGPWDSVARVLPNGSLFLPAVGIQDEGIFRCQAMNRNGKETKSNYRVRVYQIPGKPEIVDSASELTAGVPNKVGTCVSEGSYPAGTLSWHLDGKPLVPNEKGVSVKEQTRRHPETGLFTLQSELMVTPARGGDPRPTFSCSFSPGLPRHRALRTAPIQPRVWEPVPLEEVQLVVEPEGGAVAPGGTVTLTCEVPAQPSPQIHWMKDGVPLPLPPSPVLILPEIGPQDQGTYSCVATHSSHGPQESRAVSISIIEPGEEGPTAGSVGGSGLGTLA

[5] = molecular target: cellular RAGE on human cells (HUVEC, Molt-4 cells, PBMC, Jurkat cells) (human, UniProt Q15109 23-404); assay: cell-based or functional assay
Sequence of cellular RAGE on human cells (HUVEC, Molt-4 cells, PBMC, Jurkat cells) (Q15109 23-404): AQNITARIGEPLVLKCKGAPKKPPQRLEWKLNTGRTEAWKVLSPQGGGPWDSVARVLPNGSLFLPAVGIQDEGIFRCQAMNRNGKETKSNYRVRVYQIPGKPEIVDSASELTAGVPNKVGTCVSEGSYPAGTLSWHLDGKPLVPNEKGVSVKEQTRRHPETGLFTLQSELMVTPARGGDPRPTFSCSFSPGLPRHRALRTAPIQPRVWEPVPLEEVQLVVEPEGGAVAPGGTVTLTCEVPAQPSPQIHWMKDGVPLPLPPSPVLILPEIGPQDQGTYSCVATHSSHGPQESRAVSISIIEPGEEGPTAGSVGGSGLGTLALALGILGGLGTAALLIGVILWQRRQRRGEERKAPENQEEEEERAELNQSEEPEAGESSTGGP

[6] = molecular target: T1, purified soluble human RAGE (sRAGE), prepared from a baculovirus expression system (human, UniProt Q15109 23-342); assay: radioligand binding, 125-I EN-RAGE ± 50-fold unlabelled EN-RAGE on immobilised human sRAGE
T1 construct: extracellular domain; Adsorbed to plastic wells at 5 µg/well or to Affi-gel resin; also called soluble RAGE; human soluble RAGE
T1 sequence (Q15109 23-342): as the sequence (Q15109 23-342) above
Description: Radioligand binding assays were performed employing the indicated concentration of ^125-I EN-RAGE in the presence or absence of excess unlabelled EN-RAGE (50-fold). […] Where indicated, radiolabelled EN-RAGE (100 nM) was incubated with the indicated amount of excess sRAGE two hours prior to binding assay, or wells were preincubated for two hours with the indicated concentration of rabbit nonimmune IgG, or polyclonal monospecific rabbit anti-EN-RAGE IgG or anti-RAGE IgG prior to binding assay and results reported as % maximal specific binding±SD of the mean. These experiments were performed at least five times with analogous results.
Purified EN-RAGE was radiolabelled using ^125-I and Iodobeads (Pierce) to a specific activity of approximately 5,000 cpm/ng. Radioligand binding assays were performed in 96-well dishes to which had been adsorbed either purified human RAGE (5 µg/well) or bovine aortic endothelial cells. In the former case, after adsorption of human soluble RAGE to the plastic dish in carbonate/bicarbonate buffer (pH 9.3) overnight, wells were then washed with PBS containing Tween 20 (0.05%). Unoccupied binding sites on the plastic wells were blocked by incubation with PBS containing calcium/magnesium and bovine serum albumin (1%) for two hours at 37° C. […] Solution was then aspirated from the wells and counted in a gamma counter (LKB, Gaithersburg, Md.). […]

[7] = molecular target: T2, RAGE on cultured bovine aortic endothelial cells (BAEC RAGE) (bovine, UniProt Q28173 23-416); assay: radioligand binding on cultured bovine aortic endothelial cells
T2 construct: whole, on cells; also called BAECs; endothelial (EC) RAGE
T2 sequence (looked up): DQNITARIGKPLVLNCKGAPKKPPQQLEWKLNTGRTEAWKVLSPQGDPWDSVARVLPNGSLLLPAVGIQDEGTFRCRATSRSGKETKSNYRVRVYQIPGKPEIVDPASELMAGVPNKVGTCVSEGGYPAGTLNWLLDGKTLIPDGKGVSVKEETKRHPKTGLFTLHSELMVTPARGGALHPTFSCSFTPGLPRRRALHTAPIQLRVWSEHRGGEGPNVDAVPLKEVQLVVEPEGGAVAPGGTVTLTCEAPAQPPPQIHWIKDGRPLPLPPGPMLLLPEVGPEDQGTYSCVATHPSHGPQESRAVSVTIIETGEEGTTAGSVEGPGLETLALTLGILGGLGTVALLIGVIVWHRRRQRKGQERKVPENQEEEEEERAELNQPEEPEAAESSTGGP
Description: These experiments were performed at least five times with analogous results.
Purified EN-RAGE was radiolabelled using ^125-I and Iodobeads (Pierce) to a specific activity of approximately 5,000 cpm/ng. Radioligand binding assays were performed in 96-well dishes to which had been adsorbed either purified human RAGE (5 µg/well) or bovine aortic endothelial cells. In the former case, after adsorption of human soluble RAGE to the plastic dish in carbonate/bicarbonate buffer (pH 9.3) overnight, wells were then washed with PBS containing Tween 20 (0.05%). Unoccupied binding sites on the plastic wells were blocked by incubation with PBS containing calcium/magnesium and bovine serum albumin (1%) for two hours at 37° C. […] Solution was then aspirated from the wells and counted in a gamma counter (LKB, Gaithersburg, Md.). […] Equilibrium binding data were analyzed according to the equation of Klotz and Hunston (Klotz and Hunston, 1984): B=nKA/1+KA, where B=specifically bound ligand (total binding, wells incubated with tracer alone, minus nonspecific binding, wells incubated with tracer in the presence of excess unlabelled material), n=sites/cell, K=the […] constant, and A=free ligand concentration) using nonlinear least-squares analysis (Prism; San Diego, Calif.). […]

[8] = molecular target: T1, purified soluble human RAGE (sRAGE), …; assay: elution from RAGE-Affi-gel resin; radioligand binding assay
Source text: Isolation and purification of EN-RAGE. Bovine lung acetone powder (SIGMA@) was subjected to solubilization in buffer containing tris (0.02M, pH 7.4); NaCl (0.15M); octyl-β-glucoside (1%); and protease inhibitors (PMSF and aprotinin). After serial chromatography onto SP sepharose (Pharmacia LKB®), and affi-gel 10 resin (BIO-RAD®) to which had been adsorbed purified soluble human RAGE (prepared from a baculovirus expression system), RAGE-binding proteins were identified based on a screening assay employing immobilized column fraction (Nunc Maxisorp dishes) (NUNC®) and ^125-I-labelled sRAGE as above. After elution with heparin-containing buffer (1 mg/ml), positive fractions were identified. RAGE-binding proteins were subjected to sequence analysis.

Sequence of cellular RAGE on human cells (HUVEC, Molt-4 cells, PBMC, Jurkat cells) (human) (Q15109 23-404): as the sequence (Q15109 23-404) above
Sequence of RAGE on macrophages / macrophage-like cultured BV2 cells (MP RAGE) (Q62151 23-402 limits assumed): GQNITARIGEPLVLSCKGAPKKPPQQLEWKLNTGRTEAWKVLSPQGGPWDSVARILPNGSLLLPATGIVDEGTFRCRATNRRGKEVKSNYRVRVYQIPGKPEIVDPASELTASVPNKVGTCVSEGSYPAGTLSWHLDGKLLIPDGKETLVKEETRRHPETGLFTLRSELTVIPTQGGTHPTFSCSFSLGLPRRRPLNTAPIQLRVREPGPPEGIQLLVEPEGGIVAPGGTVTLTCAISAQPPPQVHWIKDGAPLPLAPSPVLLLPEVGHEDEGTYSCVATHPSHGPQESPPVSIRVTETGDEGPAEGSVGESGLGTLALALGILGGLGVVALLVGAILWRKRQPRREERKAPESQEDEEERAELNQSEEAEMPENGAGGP

≈12 kDa RAGE-binding polypeptide isolated and purified from bovine lung extract, called EN-RAGE (from UniProt P79105 2-51) (ligand)
adhesion of Molt-4 cells to cultured ECs [1]: 7 fold
expression of cell-surface VCAM-1 on cultured ECs [1]: 4.3 fold
Kd [2]: 75 nM
Kd [3]: 75 nM
Kd [4]: 75 nM

B1: recombinant bovine EN-RAGE (Extracellular Novel RAGE binding protein), expressed in Sf9 cells from a baculovirus system (ligand)
chain: TKLEDHLEGIINIFHQYSVRVGHFDTLNKRELKQLITKELPKTLQNTKDQPTIDKIFQDLDADKDGAVSFEEFVVLVSRVLKTAHIDIHK
modifications: radiolabelled with 125-I (Iodobeads) in the radioligand binding assays; unlabelled in the cell activation assays
notes: also called 125-I EN-RAGE; radiolabelled EN-RAGE
nuclear NF-kB in HUVEC (EMSA, densitometry) [5]: 5 fold
Kd [6]: ~91 nM
Kd [7]: ~90.3 nM

B2: purified S100B from human brain (Calbiochem-Novabiochem) (ligand, UniProt P04271 2-92, looked up)
chain: SELEKAMVALIDVFHQYSGREGDKHKLKKSELKELINNELSHFLEEIKEQEVVDKVMETLDNDGDGECDFQEFMAFVAMVTTACHEFFEHE
nuclear translocation of NF-kB in HUVEC (EMSA) [5]: ~13.9 fold

B3: ≈23 kDa polypeptide from bovine lung extract, identified as amphoterin (ligand, UniProt P10103 2-215, looked up)
chain: GKGDPKKPRGKMSSYAFFVQTCREEHKKKHPDASVNFSEFSKKCSERWKTMSAKEKGKFEDMAKADKARYEREMKTYIPPKGETKKKFKDPNAPKRPPSAFFLFCSEYRPKIKGEHPGLSIGDVAKKLGEMWNNTAADDKQPYEKKAAKLKEKYEKDIAAYRAKGKPDAAKKGVVKAEKSKKKKEEEEDEEDEEDEEEEEDEEDEEEEEDDDDE
notes: The identification is cited to Hori et al., 1995
binding result [8]: binds
